Test results published in patent US20030143665A1 (NEW YORK UNIVERSITY, published 2003).

What was measured:
[1] = biological target: T1, native CIRL of rat brain (calcium-independent α-latrotoxin binding sites in rat brain membranes); affinity … (rat, UniProt O88917 22-1515)
T1 sequence: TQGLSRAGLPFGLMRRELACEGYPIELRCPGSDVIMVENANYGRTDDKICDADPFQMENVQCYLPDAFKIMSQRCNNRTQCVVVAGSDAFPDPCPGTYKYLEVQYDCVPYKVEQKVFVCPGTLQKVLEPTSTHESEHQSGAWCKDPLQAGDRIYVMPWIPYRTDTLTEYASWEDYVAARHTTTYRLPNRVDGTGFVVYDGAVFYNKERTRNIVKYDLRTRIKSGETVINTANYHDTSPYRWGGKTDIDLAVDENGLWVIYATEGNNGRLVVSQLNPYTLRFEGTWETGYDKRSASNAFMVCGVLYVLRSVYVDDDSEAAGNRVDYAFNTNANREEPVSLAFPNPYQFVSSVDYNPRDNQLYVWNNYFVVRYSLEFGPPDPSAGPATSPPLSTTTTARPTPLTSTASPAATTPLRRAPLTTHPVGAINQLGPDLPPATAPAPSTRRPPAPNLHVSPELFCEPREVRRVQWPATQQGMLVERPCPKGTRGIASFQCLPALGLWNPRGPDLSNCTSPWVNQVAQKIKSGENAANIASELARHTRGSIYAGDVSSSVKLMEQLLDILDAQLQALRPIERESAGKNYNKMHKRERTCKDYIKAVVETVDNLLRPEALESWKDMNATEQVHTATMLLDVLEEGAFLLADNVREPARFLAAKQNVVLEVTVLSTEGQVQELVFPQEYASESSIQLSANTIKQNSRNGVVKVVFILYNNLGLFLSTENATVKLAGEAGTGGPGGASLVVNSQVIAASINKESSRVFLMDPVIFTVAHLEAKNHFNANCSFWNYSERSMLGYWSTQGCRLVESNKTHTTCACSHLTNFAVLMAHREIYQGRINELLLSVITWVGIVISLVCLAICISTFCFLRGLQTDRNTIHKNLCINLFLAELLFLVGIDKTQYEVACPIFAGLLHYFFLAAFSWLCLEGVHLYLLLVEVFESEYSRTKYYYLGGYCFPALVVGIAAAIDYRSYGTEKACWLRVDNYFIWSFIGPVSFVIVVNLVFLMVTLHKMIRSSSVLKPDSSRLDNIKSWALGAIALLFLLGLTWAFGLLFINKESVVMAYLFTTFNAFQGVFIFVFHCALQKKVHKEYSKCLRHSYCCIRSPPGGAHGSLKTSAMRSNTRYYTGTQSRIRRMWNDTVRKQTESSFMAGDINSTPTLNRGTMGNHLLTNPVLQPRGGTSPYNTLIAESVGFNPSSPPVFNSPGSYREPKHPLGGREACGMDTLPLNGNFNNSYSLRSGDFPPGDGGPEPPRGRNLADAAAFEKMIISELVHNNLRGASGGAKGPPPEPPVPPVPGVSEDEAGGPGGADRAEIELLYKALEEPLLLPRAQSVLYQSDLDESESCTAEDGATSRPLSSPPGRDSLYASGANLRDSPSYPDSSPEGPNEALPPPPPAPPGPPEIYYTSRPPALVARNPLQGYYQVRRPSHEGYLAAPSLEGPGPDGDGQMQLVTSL

[2] = biological target: T2, recombinant CIRL (calcium-independent receptor of α-latrotoxin), full-length, expressed in COS cells (rat, UniProt O88917 22-1515)
T2 sequence: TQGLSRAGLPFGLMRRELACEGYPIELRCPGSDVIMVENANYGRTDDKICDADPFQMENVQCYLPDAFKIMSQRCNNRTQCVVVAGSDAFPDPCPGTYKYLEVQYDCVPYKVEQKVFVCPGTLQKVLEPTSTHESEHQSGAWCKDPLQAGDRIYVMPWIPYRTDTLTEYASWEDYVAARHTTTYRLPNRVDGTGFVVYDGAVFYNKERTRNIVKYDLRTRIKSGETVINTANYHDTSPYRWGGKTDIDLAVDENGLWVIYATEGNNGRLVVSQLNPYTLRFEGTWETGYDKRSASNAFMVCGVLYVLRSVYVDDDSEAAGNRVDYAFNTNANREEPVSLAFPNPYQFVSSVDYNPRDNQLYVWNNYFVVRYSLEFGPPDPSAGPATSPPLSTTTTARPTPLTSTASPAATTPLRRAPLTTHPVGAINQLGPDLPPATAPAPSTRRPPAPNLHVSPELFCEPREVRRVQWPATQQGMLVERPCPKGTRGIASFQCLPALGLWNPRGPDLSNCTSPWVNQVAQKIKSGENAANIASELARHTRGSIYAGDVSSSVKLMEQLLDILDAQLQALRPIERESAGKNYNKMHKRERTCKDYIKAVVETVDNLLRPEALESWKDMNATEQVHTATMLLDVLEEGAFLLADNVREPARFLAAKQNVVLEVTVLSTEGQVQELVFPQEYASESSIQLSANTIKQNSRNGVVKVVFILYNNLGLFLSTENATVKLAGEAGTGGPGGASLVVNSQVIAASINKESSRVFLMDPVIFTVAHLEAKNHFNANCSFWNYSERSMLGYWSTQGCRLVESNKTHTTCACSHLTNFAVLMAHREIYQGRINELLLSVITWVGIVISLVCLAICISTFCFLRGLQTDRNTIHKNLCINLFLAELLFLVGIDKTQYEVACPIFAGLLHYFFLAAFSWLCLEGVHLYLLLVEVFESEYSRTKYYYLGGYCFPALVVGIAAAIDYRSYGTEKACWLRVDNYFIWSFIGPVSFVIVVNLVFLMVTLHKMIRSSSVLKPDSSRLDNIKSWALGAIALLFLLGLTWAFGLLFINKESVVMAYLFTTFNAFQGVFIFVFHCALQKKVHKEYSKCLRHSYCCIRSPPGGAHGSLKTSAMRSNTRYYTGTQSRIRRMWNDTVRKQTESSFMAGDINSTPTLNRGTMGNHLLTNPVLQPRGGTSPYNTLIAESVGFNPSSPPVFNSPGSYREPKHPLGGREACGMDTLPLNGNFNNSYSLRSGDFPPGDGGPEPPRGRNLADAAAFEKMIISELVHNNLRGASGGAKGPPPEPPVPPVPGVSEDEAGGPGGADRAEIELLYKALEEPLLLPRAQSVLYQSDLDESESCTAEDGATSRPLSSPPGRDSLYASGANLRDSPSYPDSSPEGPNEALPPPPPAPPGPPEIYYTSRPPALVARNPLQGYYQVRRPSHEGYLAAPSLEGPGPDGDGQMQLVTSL

B1: α-latrotoxin (ligand)
chain: EGEDLTLEEKAEICSELELQQKYVDIASNIIGDLSSLPIAGKIAGTIAAAAMTATHVASGRLDIEQTLLGCSDLPFDQIKEVLENRFNEIDRKLDSHSAALEEITKLVEKSISVVEKTRKQMNKRFDEVMKSIQDAKVSPIISKINNFARYFDTEKERIRGLKLNDYILKLEEPNGILLHFKESRTPTDDSLQAPLFSIIEEGYAVPKSIDDELAFKVLYALLYGTQTYVSVMFFLLEQYSFLANHYYEKGYLEKYDEYFNSLNNVFLDFKSSLVGTGTSNNEGLLDRVLQVLMTVKNSEFLGLEKNGVDEMLNEKINLFNKIKEEIEGKQKMTLSETPENFAQISFDKDITTPIGDWRDGREVRYAVQYASETLFSKISHWSDPVSVREKACPTLRMPVDQTRRNVLVFRKFDSSKPQLVGEITPYLSNFIDIDRDLYNAASNPDSAVGFKEFTKLNYDGANIRATFDHGRTVFHAAAKSGNDKIMFGLTFLAKSTELNQPDKKGYTPIHVAADSGNAGIVNLLIQRGVSINSKTYHFLQTPLHLAAQRGFVTTFQRLMESPEININERDKDGFTPLHYAIRGGERILEAFLNQISIDVNAKSNTGLTPFHLAIIKNDWPVASTLLGSKKVDINAVDENNITALHYAAILGYLETTKQLINLKEINANVVSSPGLLSALHYAILYKHDDVASFLMRSSNVNVNLKALGGITPLHLAVIQGRKQILSLMFDIGVNIEQKTDEKYTPLHLAAMSKYPELIQILLDQGSNFEAKTNSGATPLHLATFKGKSQAALILLNNEVNWRDTDENGQMPIHGAAMTGLLDVAQAIISIDATVVDIEDKNSDTPLNLAAQNSHIDVIKYFIDQGADINTRNKKGLAPLLAFSKKGNLDMVKYLFDKNANVYIADNDGMNFFYYAVQNGHLNIVKYAMSEKDKFEWSNTDNNRRDECPNEECAISHFAVCDAVQFDRIEIVKYFVGTLGNFAICGPLHQAARYGHLDIVKYLVEEEFLSVDGSKTDTPLCYASENGHFTVVQYLVSNGAKVNHDCGNGMTAIDKAITKNHLQVVQFLAANGVDFRRKNSRGTTPFLTAVAENALHIAEYLIREKRQDININEQNVDKDTALHLAVYYKNLQMIKLLIKYGIDVTIRNAYDKTALDIAIDAKFSNIVEYLKTKSGKFRR
modifications: 125I label (chloramine T procedure) in the binding and immunoprecipitation assays; coupled to Sepharose in the affinity chromatography
In the case of B1, the Kd [1] is reported as 0.28 nM and the Kd [2] is reported as 0.16 nM.
